Results as given in patent US20090062512A1, “Comparative ligand mapping from MHC class I positive cells” (priority 2000, published 2009).
Read-outs that look alike come from different tables or passages of the source.

Assays:
[1] = biological target: B*0702 class I MHC molecules in cells infected with the PR8 strain of influenza A virus (Homo sapiens, UniProt P01889); format: cell-based
[2] = biological target: A*0201 class I MHC molecules in cells infected with the PR8 strain of influenza A virus (Homo sapiens, UniProt P04439, D140Y/D185E/D98H/E176V/E277Q/G131W/G231S/I119V/I121R/I166T/I218V/L300P/L318F/N151K/N90K/P208A/P217A/Q86G/Q94H/R138H/R169H/T345S); format: cell-based

Substance	Fold Increase [2]	also measured
AARPATSTL		Fold Increase [1]: 5.1
APAGRKVGL		Fold Increase [1]: 1.5
APEEHPVLL (listed as Homo sapiens)		Fold Increase ([1]; PR8B0702: presentation by sHLA B*0702, influenza PR8 infected vs uninfected cells): 1.92
APGAPPRTL		Fold Increase [1]: 1.5
APKIGPLGL		Fold Increase [1]: 1.54
APKRPPSAF		Fold Increase [1]: 1.82
KLFDDDETGKISF	Unique	
KLFPDTPLAL	Unique	
KLIGDPNLEFV	2.82	
KLLDFGSLSNL	3.57	
KLLEGEESRISL	2.1	
KLMELHGEGSS	Unique	
KLQEFLQTL	2.3	
KMLEKLPEL	2.14	
KMWDPHNDPNA	Unique	
KMYEEFLSKV	1.8	
KVFDPVPVGV	1.74	
KVPEWVDTV	5.94	
LLDANLNIKI	2.78	
LLDVPTAAV	5.18	
LLDVTPLSL	9.68	
LLDVVHPA	33.09	
LLDVVHPAA	3.43	

Substance	Fold Increase [2]	also measured
LLLDVPTAAV	1.95	
LLLDVPTAAVQA	6.24	
LMTTVHAITAT	Unique	
NDHFVKL	7.75	
QLLGSAHEV	4.98	
RLDDVSNDV	2.55	
RLIDLGVGL	2.03	
RLTPKLMEV	2.2	
RLWPKIQGL	Unique	
RLYPWGVVEV	2.79	
RVPPPPPIA	6.54	
SIIGRLLEV	56.92	
SLAKIYTEA	5.38	
SLDQPTQTV	9.84	
SLFEGTWYL	2.36	
SLLDIIEKV	2.56	
SLWSIISKV	3.06	
SLYEMVSRV	1.87	
SMLEDVQRA	2.4	
SMMDVDHQI	3.58	
SMPDFDLHL	1.83	
SMTLAIHEI	2.11	
TIAQLHAV	Unique	

Substance	Fold Increase [2]	also measured
TLAEIAKVEL	3.32	
TLAEVERLKGL	Unique	
TLAKYLMEL	6.81	
TLDEYTTRV	3.74	
TLIDLPGITKV	6.48	
TLIGLSIKV	2.28	
TLLEDGTFKV	1.67	
TLQEVFERATF	Unique	
TLWDIQKDLK	1.64	
TLWGIQKEL	3.27	
TLWPEVQKL	2.97	
VINDVRDIFL	1.71	
VLEDPVHAV	3.91	
VLFDVTGQVRL	2.48	
VLLSDSNLHDA	10.95	
VMDSKIVQV	22.84	
VVQDGIVKA	Unique	
YAYDGKDYI	Unique	
YAYDGKDYIA	1.6	
YLDIKGLLDV	2.44	
YLDKVRALE	Unique	
YMEEIYHRI	3.98	
